In test [1] the target is HLA-A*68:02. Briefly: IEDB peptide-MHC binding, cellular MHC/competitive/fluorescence; ≥ and ≤ were set here for values at or beyond the usual limits of such assays.
The target of test [2] is HLA-A*02:06. Described as above.
Test [3] has as its target HLA-A*02:02. The description is as above.
For test [4], the target named is HLA-A*02:01. Described as above.
Test [5] addresses HLA-A*02:03. Briefly: IEDB peptide-MHC binding, purified MHC/competitive/radioactivity; ≥ and ≤ were set here for values at or beyond the usual limits of such assays.
Test [6] concerns the target HLA-A*68:02. Described as above.
In test [7] the target is HLA-A*02:01. The description is as above.
Test [8] addresses HLA-A*02:06. Described as above. The note with it: source organism: Vaccinia virus WR.
Setting [9] is: source organism: Vaccinia virus WR.
[10] abbreviates: source organism: Influenza A virus.

Bounds are passed on as bounds.

AAAKTPVIVV: the IC50 (in general, the concentration that inhibits the measured activity by half) in test [1] (setting [9]) came out at 5.25 µM; in test [2] (setting [9]), 13.4 µM; in test [3] (setting [9]), 8.04 µM; in test [4] (setting [9]) it was 44.3 µM; in test [5] (setting [9]), 1.52 µM.
AAGAAVKGV: the IC50 in test [1] (setting [10]) was 26 µM; in test [2] (setting [10]), 25.5 µM; in test [3] (setting [10]) it was at least 70 µM; in test [4] (setting [10]), 56.8 µM; in test [5] (setting [10]) it was 2.3 µM.
On to AIRGQYSGFV, for which the IC50 was found to be 18.4 µM in test [1] (setting [10]); 42.8 µM in test [2] (setting [10]); 6.28 µM in test [3] (setting [10]); 12.9 µM in test [4] (setting [10]); 0.092 µM in test [5] (setting [10]).
Take AMHDKKIDI: the IC50 in test [1] (setting [9]) was determined as 8 µM; in test [2] (setting [9]) it was 42 µM; in test [3] (setting [9]), 17.2 µM; in test [4] (setting [9]), 8.85 µM; in test [5] (setting [9]), 1.52 µM.
Turning to AVTLNRIKI, the IC50 in test [2] (setting [9]) is 7.61 µM; in test [3] (setting [9]) it was 10.8 µM; in test [6] (setting [9]), 4.95 µM; in test [5] (setting [9]), 3.34 µM; in test [7] (setting [9]) it was 1.15 µM.
Take CIVAAVIIM: the IC50 came out at 32.7 µM in test [2] (setting [9]); 14.3 µM in test [3] (setting [9]); 4.44 µM in test [6] (setting [9]); 1.42 µM in test [5] (setting [9]); 1.57 µM in test [7] (setting [9]).
For DAKRNSKSLV, the IC50 was 12.6 µM in test [1] (setting [9]); 52.1 µM in test [2] (setting [9]); 13.3 µM in test [3] (setting [9]); 30.3 µM in test [4] (setting [9]); 2.87 µM in test [5] (setting [9]).
As for DAMIHKTYI, the IC50 in test [2] (setting [9]) turned out to be 9.56 µM; in test [3] (setting [9]) it was 5.42 µM; in test [4] (setting [9]) it was 8.17 µM; in test [6] (setting [9]) it was 0.087 µM; in test [5] (setting [9]) it was 1.52 µM.
With DINVIGLIV, the IC50 in test [2] (setting [9]) was determined as 5.53 µM; in test [3] (setting [9]), 9.8 µM; in test [6] (setting [9]) it was 2.27 µM; in test [5] (setting [9]), 4.04 µM; in test [7] (setting [9]) it was 0.387 µM.
In the case of DIRDKYMEL, the IC50 in test [1] (setting [9]) amounted to 14.7 µM; in test [2] (setting [9]) it was 14.6 µM; in test [3] (setting [9]), 24.3 µM; in test [4] (setting [9]), 10.3 µM; in test [5] (setting [9]), 3.86 µM.
Take DITNILGGV: the IC50 in test [2] (setting [9]) was 7.43 µM; in test [3] (setting [9]), 9.88 µM; in test [4] (setting [9]), 11.4 µM; in test [6] (setting [9]), 0.012 µM; in test [5] (setting [9]), 1.64 µM.
Turning to DITNILGGVL, the IC50 in test [2] (setting [9]) turned out to be 19 µM; in test [3] (setting [9]), 12.3 µM; in test [4] (setting [9]), 16.2 µM; in test [6] (setting [9]), 0.515 µM; in test [5] (setting [9]) it was 3.68 µM.
The matching figures for EAFETQSGAL: 15 µM, 8.56 µM, 14.2 µM, 0.068 µM and 0.995 µM.
Turning to EIKAEMQLKI, the IC50 in test [1] (setting [9]) turned out to be 5.12 µM; in test [2] (setting [9]), 14.3 µM; in test [3] (setting [9]), 16.9 µM; in test [4] (setting [9]), 27.5 µM; in test [5] (setting [9]), 4.76 µM.
The corresponding values for EILRNYLRL are 9.23 µM, 12.9 µM, 14 µM, 10.5 µM and 2.09 µM.
EIRGVLPEET: the IC50 in test [2] (setting [9]) turned out to be 20.1 µM; in test [3] (setting [9]), 9.6 µM; in test [4] (setting [9]) it was 30.5 µM; in test [6] (setting [9]), 4.54 µM; in test [5] (setting [9]), 4.87 µM.
The corresponding values for ETMYLTMKA are 12.7 µM, 7.85 µM, 19.1 µM, 0.00064 µM and 0.942 µM.
The matching figures for EVGTNFGTI: 19.9 µM, 5.76 µM, 20.1 µM, 0.069 µM and 1.94 µM.
In the case of EVLMSPCRM, the IC50 amounted to 11.8 µM in test [2] (setting [9]); 6.83 µM in test [3] (setting [9]); 27.9 µM in test [4] (setting [9]); 1.52 µM in test [6] (setting [9]); 0.651 µM in test [5] (setting [9]).
On to EVMPEKRNVV, for which the IC50 in test [2] (setting [9]) came to 12.1 µM; in test [3] (setting [9]) it was 20.2 µM; in test [4] (setting [9]), 44.3 µM; in test [6] (setting [9]), 0.107 µM; in test [5] (setting [9]), 2.62 µM.
The corresponding values for FISYNRHNDT are 11.2 µM, 6.84 µM, 36.3 µM, 2.28 µM and 4.93 µM.
Take GADINLMPI: the IC50 in test [2] (setting [10]) stood at 5.77 µM; in test [3] (setting [10]), 7.41 µM; in test [4] (setting [10]), 11.9 µM; in test [6] (setting [10]), 4.41 µM; in test [5] (setting [10]), 3.3 µM.
With GLIVILFIM, the IC50 in test [2] (setting [9]) was determined as 5.29 µM; in test [3] (setting [9]), 13.4 µM; in test [6] (setting [9]), 1.38 µM; in test [5] (setting [9]), 1.39 µM; in test [7] (setting [9]), 1.66 µM.
For HANNSTDTV, the IC50 in test [2] (setting [10]) is 55 µM; in test [3] (setting [10]) it was 8.32 µM; in test [4] (setting [10]), 24 µM; in test [6] (setting [10]), 0.168 µM; in test [5] (setting [10]), 4.32 µM.
For KLYIALCKVT, the concentration for half-maximal inhibition (IC50) in test [1] (setting [9]) came to 18.6 µM; in test [2] (setting [9]), 6.36 µM; in test [3] (setting [9]), 7.11 µM; in test [5] (setting [9]), 0.625 µM.
In the case of LTKDRKMLEL, the IC50 in test [2] (setting [9]) amounted to 20.8 µM; in test [3] (setting [9]), 7.7 µM; in test [6] (setting [9]), 4.84 µM; in test [5] (setting [9]) it was 0.133 µM; in test [7] (setting [9]), 3.43 µM.
As for LVITYCLVT, the IC50 in test [1] (setting [9]) is 5.75 µM; in test [2] (setting [9]), 8.01 µM; in test [3] (setting [9]), 6.98 µM; in test [5] (setting [9]) it was 3.25 µM; in test [7] (setting [9]), 1.33 µM.
On to NISFKSINKV, for which the IC50 stood at 11.7 µM in test [2] (setting [9]); 20.3 µM in test [3] (setting [9]); 14.5 µM in test [4] (setting [9]); 2.03 µM in test [6] (setting [9]); 1.53 µM in test [5] (setting [9]).
For the sequence NMWREILSNT, the IC50 was found to be 63.2 µM in test [1] (setting [9]); 12 µM in test [2] (setting [9]); 6.07 µM in test [3] (setting [9]); 0.056 µM in test [5] (setting [9]); 0.997 µM in test [7] (setting [9]).
Turning to NTITTFIPI, the IC50 was 7.77 µM in test [2] (setting [9]); 15.5 µM in test [3] (setting [9]); 0.0012 µM in test [6] (setting [9]); 0.988 µM in test [5] (setting [9]); 0.857 µM in test [7] (setting [9]).
NTKSDNIINI: the IC50 is at least 70 µM in test [2] (setting [9]); 30.8 µM in test [3] (setting [9]); at least 70 µM in test [4] (setting [9]); 0.101 µM in test [6] (setting [9]); 1.08 µM in test [5] (setting [9]).
In the case of NTLISSDGA, the IC50 worked out at 25.4 µM in test [1] (setting [9]), 49.3 µM in test [2] (setting [9]), 7.41 µM in test [3] (setting [9]) and 3.57 µM in test [5] (setting [9]).
Take PTSETMYLT: the IC50 in test [2] (setting [9]) is at least 70 µM; in test [3] (setting [9]) it was 10.4 µM; in test [4] (setting [9]), 34.9 µM; in test [6] (setting [9]), 4.04 µM; in test [5] (setting [9]), 3.64 µM.
For RTEIIRMMESA, the IC50 in test [2] (setting [10]) is at least 70 µM; in test [3] (setting [10]), 8.29 µM; in test [4] (setting [10]) it was at least 70 µM; in test [6] (setting [10]), 4.32 µM; in test [5] (setting [10]) it was 4.47 µM.
As for RTWKVLSIM, the IC50 amounted to 33.9 µM in test [2] (setting [9]); 19.1 µM in test [3] (setting [9]); 4.13 µM in test [6] (setting [9]); 2.63 µM in test [5] (setting [9]); 0.84 µM in test [7] (setting [9]).
As for RVNHAKYMVT, the IC50 came out at 9.34 µM in test [2] (setting [9]); 33.6 µM in test [3] (setting [9]); 39 µM in test [4] (setting [9]); 0.544 µM in test [6] (setting [9]); 1.05 µM in test [5] (setting [9]).
On to STKADAVVA, for which the IC50 was determined as 16.2 µM in test [2] (setting [9]); 8.19 µM in test [3] (setting [9]); 29.3 µM in test [4] (setting [9]); 0.82 µM in test [6] (setting [9]); 4.95 µM in test [5] (setting [9]).
The matching figures for SVDAMIHKT: 10.6 µM, 5.02 µM, 24.1 µM, 0.878 µM and 3.66 µM.
In the case of SVNASKTINA, the IC50 in test [2] (setting [9]) was found to be 28.7 µM; in test [3] (setting [9]) it was 17.3 µM; in test [4] (setting [9]), 19.3 µM; in test [6] (setting [9]), 0.629 µM; in test [5] (setting [9]) it was 0.731 µM.
Turning to TAIRAGYSIV, the IC50 turned out to be 8.59 µM in test [2] (setting [9]); 6.82 µM in test [3] (setting [9]); 26.2 µM in test [4] (setting [9]); 1.05 µM in test [6] (setting [9]); 0.072 µM in test [5] (setting [9]).
As for TVEFDRDKVV, the IC50 in test [2] (setting [9]) worked out at 30.8 µM; in test [3] (setting [9]) it was 16.2 µM; in test [4] (setting [9]), 30.9 µM; in test [6] (setting [9]), 2.63 µM; in test [5] (setting [9]) it was 1.59 µM.
The corresponding values for VIRHVDGKI are 9.27 µM, 8.55 µM, 43.3 µM, 1.45 µM and 0.978 µM.
Consider VNPTLLFLKV, for which the IC50 in test [2] (setting [10]) was 16.4 µM; in test [3] (setting [10]), 6.37 µM; in test [6] (setting [10]), 0.024 µM; in test [5] (setting [10]), 2.81 µM; in test [7] (setting [10]) it was 3.73 µM.
On to VTDKTAYIGT, for which the IC50 in test [1] (setting [9]) came to 6.47 µM; in test [3] (setting [9]) it was 21.8 µM; in test [4] (setting [9]), 6.62 µM; in test [8], 0.227 µM; in test [5] (setting [9]), 4 µM.
The corresponding values for YVILKDPRIA are 19 µM, 6.01 µM, 39.5 µM, 1.9 µM and 0.355 µM.
In the case of YVSSSYKDI, the IC50 in test [2] (setting [9]) was determined as 16.6 µM; in test [3] (setting [9]), 5.04 µM; in test [4] (setting [9]), 31.2 µM; in test [6] (setting [9]) it was 2.63 µM; in test [5] (setting [9]), 1.2 µM.

These data come from the Immune Epitope Database (IEDB).
